Assays:
[1] = biological target: Grb2 SH2 (UniProt P62993); test: SH2 binding enrichment of the phosphorylated peptide, bacterial display (enrichment ratio); higher = better substrate or ligand; peptides without Tyr show the background
[2] = biological target: c-Src SH2; test: as above
[3] = biological target: SHP2-C SH2; test: as above
[4] = biological target: EPHB2 (UniProt P29323); test: phosphorylation enrichment, bacterial display (enrichment ratio); higher = better substrate or ligand; peptides without Tyr show the background
[5] = biological target: Hck (UniProt P08631); test: as above
Hck, sequence (P08631 whole entry, looked up): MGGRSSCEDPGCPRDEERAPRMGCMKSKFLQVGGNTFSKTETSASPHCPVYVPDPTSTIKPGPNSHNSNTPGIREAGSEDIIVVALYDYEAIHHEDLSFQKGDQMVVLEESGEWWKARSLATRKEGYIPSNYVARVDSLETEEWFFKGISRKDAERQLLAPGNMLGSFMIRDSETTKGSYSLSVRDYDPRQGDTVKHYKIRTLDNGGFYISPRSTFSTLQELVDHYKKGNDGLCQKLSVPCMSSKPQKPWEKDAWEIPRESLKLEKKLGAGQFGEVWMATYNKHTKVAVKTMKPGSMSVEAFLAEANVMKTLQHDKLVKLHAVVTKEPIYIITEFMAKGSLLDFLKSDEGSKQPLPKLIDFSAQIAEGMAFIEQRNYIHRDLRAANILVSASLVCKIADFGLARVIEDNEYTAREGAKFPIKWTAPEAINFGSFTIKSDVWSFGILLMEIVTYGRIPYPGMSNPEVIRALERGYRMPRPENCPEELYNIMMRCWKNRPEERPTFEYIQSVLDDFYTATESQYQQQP

[6] = biological target: FGFR1 (UniProt P11362); test: as above
FGFR1, sequence (P11362 whole entry, looked up): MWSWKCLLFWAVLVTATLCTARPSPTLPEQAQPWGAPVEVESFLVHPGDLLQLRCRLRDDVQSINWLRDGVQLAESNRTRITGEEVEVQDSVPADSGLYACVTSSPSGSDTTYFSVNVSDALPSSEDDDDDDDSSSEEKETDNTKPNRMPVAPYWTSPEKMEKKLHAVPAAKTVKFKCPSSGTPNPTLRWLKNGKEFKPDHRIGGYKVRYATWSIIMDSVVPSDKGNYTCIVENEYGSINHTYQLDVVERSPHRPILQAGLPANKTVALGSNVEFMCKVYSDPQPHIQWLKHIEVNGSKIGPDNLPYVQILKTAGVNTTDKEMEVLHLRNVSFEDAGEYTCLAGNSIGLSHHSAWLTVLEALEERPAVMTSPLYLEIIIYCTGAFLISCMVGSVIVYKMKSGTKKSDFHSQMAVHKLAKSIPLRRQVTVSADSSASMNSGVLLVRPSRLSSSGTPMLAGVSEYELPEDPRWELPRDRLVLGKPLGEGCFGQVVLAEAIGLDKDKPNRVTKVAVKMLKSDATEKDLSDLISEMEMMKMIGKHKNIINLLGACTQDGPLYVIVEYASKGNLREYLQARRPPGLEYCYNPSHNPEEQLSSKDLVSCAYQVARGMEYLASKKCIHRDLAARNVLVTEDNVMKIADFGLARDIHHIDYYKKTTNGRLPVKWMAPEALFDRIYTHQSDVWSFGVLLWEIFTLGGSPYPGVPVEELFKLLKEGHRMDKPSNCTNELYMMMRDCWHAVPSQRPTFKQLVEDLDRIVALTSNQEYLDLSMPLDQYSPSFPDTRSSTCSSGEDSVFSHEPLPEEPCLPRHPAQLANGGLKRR

[7] = biological target: Fes (UniProt P07332); test: as above
Fes, sequence (P07332 whole entry, looked up): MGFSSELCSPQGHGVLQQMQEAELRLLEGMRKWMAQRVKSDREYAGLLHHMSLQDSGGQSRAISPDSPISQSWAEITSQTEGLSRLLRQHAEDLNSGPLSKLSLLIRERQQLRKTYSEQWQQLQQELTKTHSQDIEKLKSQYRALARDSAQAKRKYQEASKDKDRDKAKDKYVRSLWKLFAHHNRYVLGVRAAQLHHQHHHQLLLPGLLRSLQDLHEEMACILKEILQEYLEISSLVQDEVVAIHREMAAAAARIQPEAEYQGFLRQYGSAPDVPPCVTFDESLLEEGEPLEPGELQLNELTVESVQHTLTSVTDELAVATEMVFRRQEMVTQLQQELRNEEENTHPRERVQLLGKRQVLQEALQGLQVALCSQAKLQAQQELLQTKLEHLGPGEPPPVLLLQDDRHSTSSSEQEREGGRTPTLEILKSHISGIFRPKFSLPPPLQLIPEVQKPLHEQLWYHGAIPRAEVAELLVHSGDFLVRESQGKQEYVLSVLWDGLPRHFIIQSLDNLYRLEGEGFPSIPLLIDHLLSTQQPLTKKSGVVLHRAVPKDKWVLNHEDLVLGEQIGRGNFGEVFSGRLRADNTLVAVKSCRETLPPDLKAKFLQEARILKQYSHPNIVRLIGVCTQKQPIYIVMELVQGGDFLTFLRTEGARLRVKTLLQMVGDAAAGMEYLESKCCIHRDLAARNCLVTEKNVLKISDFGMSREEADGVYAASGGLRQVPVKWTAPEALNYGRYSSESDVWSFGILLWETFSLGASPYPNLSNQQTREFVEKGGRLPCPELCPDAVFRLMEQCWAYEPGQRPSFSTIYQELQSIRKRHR

[8] = biological target: FGFR3 (UniProt P22607); test: as above
[9] = biological target: Jak2 (UniProt O60674); test: as above
[10] = biological target: MERTK (UniProt Q12866); test: as above
MERTK, sequence (Q12866 whole entry, looked up): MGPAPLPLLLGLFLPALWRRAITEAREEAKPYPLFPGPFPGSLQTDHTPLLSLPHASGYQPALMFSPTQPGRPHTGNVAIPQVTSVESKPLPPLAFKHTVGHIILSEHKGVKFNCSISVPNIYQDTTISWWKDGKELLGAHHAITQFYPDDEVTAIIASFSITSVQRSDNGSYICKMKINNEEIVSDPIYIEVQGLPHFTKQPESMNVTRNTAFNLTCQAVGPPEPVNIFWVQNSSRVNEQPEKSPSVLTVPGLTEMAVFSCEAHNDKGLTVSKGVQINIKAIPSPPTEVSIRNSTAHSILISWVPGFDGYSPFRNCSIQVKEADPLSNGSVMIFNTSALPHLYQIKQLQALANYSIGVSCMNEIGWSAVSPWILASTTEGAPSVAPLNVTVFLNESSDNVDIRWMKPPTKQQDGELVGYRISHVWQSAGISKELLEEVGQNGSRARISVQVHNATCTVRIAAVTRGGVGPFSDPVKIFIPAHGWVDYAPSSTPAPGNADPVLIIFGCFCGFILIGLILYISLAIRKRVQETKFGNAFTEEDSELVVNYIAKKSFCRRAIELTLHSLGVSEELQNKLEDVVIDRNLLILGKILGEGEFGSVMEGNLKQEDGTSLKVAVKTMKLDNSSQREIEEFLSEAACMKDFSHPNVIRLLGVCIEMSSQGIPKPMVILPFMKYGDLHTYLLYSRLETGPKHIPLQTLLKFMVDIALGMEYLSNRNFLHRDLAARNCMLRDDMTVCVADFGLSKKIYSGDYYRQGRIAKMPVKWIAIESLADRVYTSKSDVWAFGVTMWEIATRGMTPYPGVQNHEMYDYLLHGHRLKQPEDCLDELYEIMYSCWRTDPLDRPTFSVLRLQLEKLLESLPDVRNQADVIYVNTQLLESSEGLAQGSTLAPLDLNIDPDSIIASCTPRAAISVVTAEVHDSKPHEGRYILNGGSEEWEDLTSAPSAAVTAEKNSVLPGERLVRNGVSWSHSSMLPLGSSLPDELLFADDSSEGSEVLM

[11] = biological target: EPHB1 (UniProt P54762); test: as above
EPHB1, sequence (P54762 whole entry, looked up): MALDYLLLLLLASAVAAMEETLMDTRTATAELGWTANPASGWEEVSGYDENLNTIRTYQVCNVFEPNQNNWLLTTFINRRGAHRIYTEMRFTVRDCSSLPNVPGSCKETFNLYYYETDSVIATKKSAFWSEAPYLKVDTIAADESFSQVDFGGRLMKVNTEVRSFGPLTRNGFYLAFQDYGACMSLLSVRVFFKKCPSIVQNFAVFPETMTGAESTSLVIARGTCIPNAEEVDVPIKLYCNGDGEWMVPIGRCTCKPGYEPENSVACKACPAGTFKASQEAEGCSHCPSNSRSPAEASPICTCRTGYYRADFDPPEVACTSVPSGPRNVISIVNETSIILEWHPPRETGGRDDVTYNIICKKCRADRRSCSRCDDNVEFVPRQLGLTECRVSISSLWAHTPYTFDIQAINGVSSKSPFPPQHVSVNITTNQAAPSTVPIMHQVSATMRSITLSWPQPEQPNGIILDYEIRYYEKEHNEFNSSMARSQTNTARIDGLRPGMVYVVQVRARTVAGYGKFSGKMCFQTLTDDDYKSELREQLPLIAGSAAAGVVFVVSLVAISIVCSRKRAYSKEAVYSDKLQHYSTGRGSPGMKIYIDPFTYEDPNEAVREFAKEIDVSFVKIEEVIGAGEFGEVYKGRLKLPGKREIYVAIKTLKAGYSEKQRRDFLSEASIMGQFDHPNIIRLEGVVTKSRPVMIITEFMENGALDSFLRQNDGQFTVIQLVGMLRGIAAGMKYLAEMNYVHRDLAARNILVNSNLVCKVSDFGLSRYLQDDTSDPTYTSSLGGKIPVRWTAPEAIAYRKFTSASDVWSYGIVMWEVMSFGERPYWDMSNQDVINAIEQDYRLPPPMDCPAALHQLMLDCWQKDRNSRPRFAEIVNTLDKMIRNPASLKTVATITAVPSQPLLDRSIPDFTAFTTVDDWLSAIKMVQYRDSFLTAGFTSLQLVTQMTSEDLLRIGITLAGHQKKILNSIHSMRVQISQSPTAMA

[12] = system: c-Src; test: as above
[13] = system: AncSZ; test: as above
[14] = system: c-Abl (mouse); test: as above
[15] = system: Fer (mouse); test: as above
[16] = biological target: Fyn (UniProt P06241); test: as above
Fyn, sequence (P06241 whole entry, looked up, the tested form may be a part): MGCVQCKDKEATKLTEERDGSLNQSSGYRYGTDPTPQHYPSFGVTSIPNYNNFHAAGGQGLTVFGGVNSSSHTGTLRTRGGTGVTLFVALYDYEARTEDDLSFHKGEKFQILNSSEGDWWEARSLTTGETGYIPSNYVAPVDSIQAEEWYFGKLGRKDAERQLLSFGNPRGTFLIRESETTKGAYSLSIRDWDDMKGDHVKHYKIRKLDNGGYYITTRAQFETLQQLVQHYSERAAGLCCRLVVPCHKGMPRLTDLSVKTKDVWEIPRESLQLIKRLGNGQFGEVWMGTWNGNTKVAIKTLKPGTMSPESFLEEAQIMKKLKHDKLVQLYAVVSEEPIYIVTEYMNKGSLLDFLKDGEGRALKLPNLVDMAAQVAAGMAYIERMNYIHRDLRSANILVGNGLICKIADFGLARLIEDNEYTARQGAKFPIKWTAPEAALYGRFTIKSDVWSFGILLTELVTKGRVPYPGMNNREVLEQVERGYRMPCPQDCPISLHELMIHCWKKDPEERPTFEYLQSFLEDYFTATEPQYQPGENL
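Throughout, for SH2 binding enrichment of the phosphorylated peptide, bacterial display: peptide library displayed on the E. coli surface as eCPX fusions, selected cells deep-sequenced, score is each peptide's frequency after selection divided by its frequency in the input.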
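Throughout, for phosphorylation enrichment, bacterial display: 11-residue human phosphosite peptides and single-mutation variants displayed on the E. coli surface, counted by deep sequencing, each peptide's frequency after selection divided by its frequency in the unselected input library; frequency after pTyr selection over input frequency; kinase dosed for 20-30% of maximal phosphorylation in three min.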

SH2 binding enrichment [1]	SH2 binding enrichment [2]	SH2 binding enrichment [3]	Sequence	phosphorylation enrichment [4]	phosphorylation enrichment [5]	phosphorylation enrichment [6]	phosphorylation enrichment [7]	phosphorylation enrichment [8]	phosphorylation enrichment [9]	phosphorylation enrichment [10]	phosphorylation enrichment [11]	phosphorylation enrichment [12]	phosphorylation enrichment [13]	phosphorylation enrichment [14]	phosphorylation enrichment [15]	phosphorylation enrichment [16]
7.6	1.88	1.78	TSSAVYMNLAS [GATAD2B_Y317_I316V]	0.65	4.17	1.31	0.83	1.09	0.776	3.69	1.67	3.04	0.759	0.755	0.818	3.21
0.782	1.25	0.852	TVQVAYYTMMM [SPATA17_Y83]	1.76	2.19	10.8	1.85	9.18	4.2	9.05	3.4	4.49	1.91	1.36	3.74	2
1.06	0.925	0.812	TVQVAYYTVMM [SPATA17_Y83_M86V]	1.61	1.74	5.72	1.5	4.63	2.57	5.44	2.96	2.09	1.52	0.972	1.59	1.59
1.07	0.523	0.604	VATRWYRSPEL [CDKL5_Y177]	0.516	0.482	0.372	0.73	0.518	1	0.459	0.421	0.448	0.834	0.575	0.384	0.385
0.755	0.488	1.01	VDGSVYKLHPS [GCK_Y413]	0.543	1.03	0.536	0.655	0.583	0.735	0.424	0.467	3.28	0.581	0.614	0.642	2.64
0.819	0.592	0.95	VDHFGYTKDDK [APOB_Y740]	0.327	0.463	0.497	0.764	0.498	0.762	0.395	0.388	0.393	0.709	0.67	0.408	0.369
0.793	0.517	0.67	VDSAHYKLLET [DTX3L_Y385]	0.574	0.543	0.485	0.722	0.657	0.517	0.419	0.355	0.401	0.665	0.466	0.427	0.485
1.01	0.752	1.27	VDSLRYIFPKL [EIF2B3_Y92_A87V_YF]	0.38	0.385	0.486	0.9	0.51	0.822	0.531	0.449	0.526	0.704	0.85	0.463	0.372
0.699	1.57	3.31	VDSNPYSRLMA [UBA5_Y53]	0.488	1.72	0.468	0.657	0.533	0.47	0.524	0.465	1.16	0.608	0.469	1.04	0.756
1.38	1.7	3.46	VDSNPYSRLVA [UBA5_Y53_M57V]	0.584	1.21	0.465	0.64	0.559	0.611	0.445	0.55	1.02	0.743	0.648	0.785	0.553
0.943	0.426	0.573	VDTLWYKFLKR [EPM2A_Y86_F84L]	0.763	0.441	0.414	1.11	0.611	0.892	0.374	0.46	0.366	0.868	0.68	0.466	0.411
0.631	0.457	0.719	VECQVYAEDPY [PCCA_Y401_R399Q]	0.8	0.669	0.575	1.65	1.12	1.28	0.466	0.828	1.02	1.51	0.981	0.846	0.765
0.592	4.29	0.554	VEDHFYEGGIG [TKT_Y564_YF]	0.543	0.538	0.58	1.12	0.875	1.13	0.575	0.63	0.594	1.24	0.893	0.704	0.684
0.852	0.786	4.76	VEYAKYGSLQG [RET_Y809_R813Q]	0.438	0.846	0.549	0.662	0.539	0.58	0.418	0.505	1.44	0.614	0.523	0.458	1.44
1.53	1.11	1.84	VFDMLYQLANL [USP24_Y1087]	1.34	3.29	0.754	1.08	0.82	0.874	2.5	1.32	5.01	1.52	0.945	14.1	3
0.834	0.565	0.699	VFSATYHPDHW [EFCAB12_Y544_P541S_YF]	0.519	0.466	0.548	0.785	0.614	0.807	0.492	0.518	0.761	0.739	0.676	0.55	0.472
0.89	0.416	0.624	VHKEGYNKLNQ [ZNF676_Y98]	0.331	0.381	0.356	0.539	0.511	0.668	0.426	0.467	0.463	0.55	0.752	0.367	0.38

SH2 binding enrichment [1]	SH2 binding enrichment [2]	SH2 binding enrichment [3]	Sequence	phosphorylation enrichment [4]	phosphorylation enrichment [5]	phosphorylation enrichment [6]	phosphorylation enrichment [7]	phosphorylation enrichment [8]	phosphorylation enrichment [9]	phosphorylation enrichment [10]	phosphorylation enrichment [11]	phosphorylation enrichment [12]	phosphorylation enrichment [13]	phosphorylation enrichment [14]	phosphorylation enrichment [15]	phosphorylation enrichment [16]
0.92	0.605	0.497	VIEQRYNETWL [SLC2A4_Y56_S55R]	0.519	0.468	0.516	1.05	0.553	0.744	0.381	0.467	0.402	0.809	0.659	0.457	0.538
0.906	0.537	0.782	VIESSYQVAKA [CPT1B_Y534]	0.483	0.577	0.489	0.815	0.404	0.535	0.44	0.454	0.483	0.7	0.558	0.448	0.457
0.927	6.21	3.63	VIEYSYTSADG [DHCR7_Y382_C380Y]	0.633	0.557	0.711	1.19	0.82	0.897	0.365	0.699	0.536	1.34	0.686	0.538	0.497
0.593	3.09	0.753	VISNAYVDLSP [HSD17B4_Y602_A606S]	0.523	0.542	0.896	0.818	0.62	0.829	0.518	0.443	0.525	1.11	0.711	0.511	0.534
0.993	1.14	0.687	VKANTYEKYWL [GATM_Y100_P105L]	0.5	0.583	0.582	0.837	0.541	0.733	0.875	0.661	0.652	0.794	0.644	2.47	0.668
12.5	2.84	1.58	VKANTYENFWP [GATM_Y100_K102N_YF]	2.03	2.1	0.415	1.04	0.661	0.954	3.58	3.6	4.08	0.926	0.904	2.02	3.61
13.2	3.55	1.9	VKANTYENYWP [GATM_Y100_K102N]	7.05	1.65	1.17	0.81	0.818	0.994	2.41	7.05	3.07	0.893	0.801	1.2	2.59
0.92	0.533	1.52	VMSGPYELKAL [IL1B_Y140]	0.512	0.491	0.419	0.622	0.57	0.463	0.351	0.303	0.873	0.51	0.481	0.447	0.564
0.785	11.1	0.686	VNCHQYDGLVG [ATP2A2_Y407_E412G]	0.546	0.502	0.559	0.847	0.673	0.736	0.451	0.433	0.559	0.931	0.684	0.518	0.48
0.747	0.529	0.72	VNKIYHPDFIV [LIG3_Y768_Y768H]	0.417	0.481	0.453	0.715	0.589	0.796	0.483	0.355	0.484	0.62	0.562	0.388	0.446
0.645	0.452	0.722	VRFMANTDETF [F8_Y450_Y450N]	0.568	0.462	0.439	1.12	0.653	0.849	0.408	0.701	0.44	0.928	0.604	0.436	0.408
1.02	0.578	0.744	VRSNHYDPEED [TJP1_Y1346]	0.608	0.579	0.66	1.19	0.748	0.974	0.526	0.494	0.445	1.27	0.688	0.49	0.568
0.62	0.421	0.627	VSLEAYCKHKY [RXRA_Y403_A398V]	0.584	0.579	0.611	1.24	0.662	1.05	0.559	0.7	0.46	1.01	0.96	0.541	0.656
0.62	0.43	0.409	VSRGRYRPQEC [B4GALT4_Y113]	0.476	0.49	0.475	0.643	0.515	0.655	0.575	0.527	0.657	0.754	0.545	0.542	0.574
1.1	0.656	0.848	VSTKVYKRFPS [BEST1_Y148_A146K]	0.348	0.352	0.384	0.605	0.305	0.47	0.365	0.344	0.425	0.445	0.505	0.422	0.366
0.989	0.358	0.54	VTRAKYFIRDE [GNAS_Y339]	0.405	0.409	0.45	0.694	0.432	0.622	0.405	0.356	0.375	0.654	0.458	0.325	0.404

From the supplement of paper PMC10065799, “High-throughput profiling of sequence recognition by tyrosine kinases and SH2 domains using bacterial peptide display” (eLife, 2023)
